In patent US11485776B2, “Antibodies against infectious diseases” (priority 2015, dated 2022):

How the values were obtained:
[1] = target: T1, CaENO1 binding to plasminogen (Candida albicans, UniProt P30575); assay: Fibrin matrix-gel degradation with CaENO1 on Ni sepharose; assay type: biochemical, C. albicans; settings: antibody 100 ug; for Binding of CaENO1 to plasminogen: CaENO1 on Ni sepharose
T1 construct: using full-length CaENO1 (1323 bp) as template; made in house; host or cells: E. coli BL21
T1 sequence (P30575 whole entry): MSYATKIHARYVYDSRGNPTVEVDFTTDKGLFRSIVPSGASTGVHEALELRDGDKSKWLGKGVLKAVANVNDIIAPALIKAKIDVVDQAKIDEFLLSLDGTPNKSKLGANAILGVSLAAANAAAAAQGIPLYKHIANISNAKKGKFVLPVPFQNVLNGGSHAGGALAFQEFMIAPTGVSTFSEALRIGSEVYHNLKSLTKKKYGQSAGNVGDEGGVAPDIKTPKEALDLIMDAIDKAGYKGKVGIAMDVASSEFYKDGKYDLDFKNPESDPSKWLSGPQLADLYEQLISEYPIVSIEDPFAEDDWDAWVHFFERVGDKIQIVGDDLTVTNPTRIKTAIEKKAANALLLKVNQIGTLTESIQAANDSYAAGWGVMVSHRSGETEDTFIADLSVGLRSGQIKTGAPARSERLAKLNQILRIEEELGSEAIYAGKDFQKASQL
Procedure: Each experimental group of CaENO1 with CaS1 scFv were dropped onto gel and incubated at room temperature for 2 days to observe gel degrade result. (1) plasminogen (1 ug/ul) only. (2) CaENO1 on Ni Sepharose™ (10 ug). (3) CaENO1 on Sepharose™ (10 ug) with plasminogen (20 ug).
Each experimental group of CaENO1 with CaS1 scFv were dropped onto gel and incubated at room temperature for 2 days to observe gel degrade result an the results are shown in FIG. 15.

[2] = system: C. albicans; assay: C. albicans hyphal formation; assay type: cell-based; settings: CaS1 scFv pre-incubated with 10^3 cfu, 5 days at 37° C.
Procedure: (A) C. albicans were cultured in YPD medium overnight at 37° C. 10^8 cfu/ml of C. albicans was mixed with equal volume of 0.5 mg/ml anti-CaENO1 IgY, 0.5 mg/ml CaS1 scFv or 1×PBS, respectively, at room temperature for 1 hr. 1 ul of each mixture in 10× dilutions was spotted on YPD agar plate and incubated at 37° C. overnight. (B) 10^3 cfu of C. albicans was mixed with PBS (control), 10 or 100 µg/ml CaS1 scFv at room temperature for 1 hr. 1 ul of each mixture was spotted on YPD agar plate and incubated at 37° C. for 5 days. The hyphal formation was observed under the microscope.
To determine the effect of scFv antibodies on the cell growth and hyphal formation, anti-CaENO1 IgY (0.5 mg/ml) or CaS1 scFv (0.5 mg/ml) or PBS were pre-incubated with C. albicans (1×10^6 cfu) for 1 hr at 37° C. After incubation, 1 ul of each mixture in 10-fold dilutions was spotted on YPD agar plate and incubated at 37° C. overnight. 10^3 cfu of C. albicans was mixed with 0 (1×PBS control), 10 or 100 µg/ml CaS1 scFv at room temperature for 1 hr. Thereafter, 1 ul of each mixture was spotted on YPD agar plate and incubated at 37° C. for 5 days. […].
So we further investigated whether CaS1 scFv affects the hyphal formation. We pre-incubated CaS1 scFv with C. albicans and the colony morphology was examined. […]

[3] = target: T2, CaENO1 (Candida albicans, UniProt P30575); assay type: binding, C. albicans
T2 construct: using full-length CaENO1 (1323 bp) as template; His (N); made in house; host or cells: E. coli BL21
T2 sequence (P30575 whole entry): as above
Procedure: (A) Purified CaS1 scFv was used to recognize recombinant CaENO1 protein. The CaS1 scFv were used as primary antibody with series dilution. The goat anti-chicken light chain IgG was used as secondary antibody. The HRP conjugated donkey anti-goat IgG was used to decet. (B) OD value was calculated into percentage. […] The goat anti-chicken light chain IgG was used as secondary antibody. The HRP conjugated donkey anti-goat IgG was used to detect. (D) We calculated OD value into percentage.
The goat anti-chicken light chain IgG was used as secondary antibody. The HRP conjugated donkey anti-goat IgG was used to decet. (B, D) OD value was calculated into percentage. […] ELISA data were represented as mean±SD of the duplicated well.
After vigorous washings, the bound IgY antibodies were detected by adding HRP-conjugated polyclonal donkey anti-chicken IgY antibodies (1:3,000) (Bethyl Laboratories, Montgomery, Tex., USA) while the bound CaS1 scFv antibodies were detected by goat anti-chicken light chain antibodies (1:3,000) (Bethyl Laboratories, Montgomery, Tex., USA), followed by HRP-conjugated donkey anti-goat IgG antibodies (Jackson ImmunoResearch, USA). After washing as above, a tetramethylbenzidine (TMB) substrate solution (Sigma, USA) was added to the wells for color development. The reaction was stopped with 1 N HCl and optical density was measured at 450 nm using an ELISA plate reader (BioTek Synergy HT). Dissociate constant (KD) was calculated according to the equation, grams/molecular weight (Da)×volume (L)^−1.
The goat anti-chicken light chain IgG was used as secondary antibody. The HRP conjugated donkey anti-goat IgG was used to decet (see FIGS. 14 (A) and (C)). OD value was calculated into percentage. […] ELISA data were represented as mean±SD of the duplicated well (see FIGS. 14 (B) and (D)).

B1: CaS1 scFv: anti-CaENO1 scFv monoclonal antibody from chicken phage library; light chain SEQ ID NO:11, heavy chain SEQ ID NO:12 (antibody, V domains shown)
VH: TVTLDESGGGLQTPRGALSLVCKASGFTFIDYGMQWVRQAPGKGLEWVAGIGSSGSSTNYGAAVKGRATISRDDGQSTVRLQLNNLRAEDTGTYYCAKSAGGYCVNGAGCNGGSIDAWGHGTEVIVSS
VL: ALTQPSSVSANLGGTVKITCSGGSGSYGWYQQKSPGSAPVTVIYSNNQRPSNIPSRFSGSPSGSTGTLTITGVQADDEAVYFCGSRDSSYVGVFGAGTTLTVL
modifications: scFv linker; amino acid sequence comprised in a heavy chain of an anti-CaENO1 scFv monoclonal antibody (CaS1); amino acid sequence comprised in a light chain of an anti-CaENO1 scFv monoclonal antibody (CaS1)
[1]; CaENO1 10 ug, plasminogen 20 ug, 2 days
  Fibrinolytic activity of CaENO1 on Sepharose with plasminogen: no fibrinolytic activity
[1]
  Binding of CaENO1 to plasminogen: significantly reduced
[1]; listed as CaS1
  Binding of CaENO1 to plasminogen: inhibits
[2]
  Hyphal formation: very little or none were observed
[3]
  Binding activity to recombinant CaENO1 on ELISA: concentration dependent
[3]; recombinant CaENO1 coated, KD or EC50 from OD percentage
  KD by ELISA: 0.498 µg/mL
[3]; recombinant CaENO1 coated, KD or EC50 from OD percentage, read-out: KD by ELISA
  Kd: 18.8 nM
